{"source": "paper PMC9813592", "about": "“A genetic screen in Arabidopsis reveals the identical roles for RBP45d and PRP39a in 5’ cryptic splice site selection”", "key": {"RBP45d (His-RBP45d) [1]": {"target": "T1, RBP45d (His-RBP45d) (Arabidopsis thaliana, UniProt Q8VXZ9 1-425)", "T1 sequence": "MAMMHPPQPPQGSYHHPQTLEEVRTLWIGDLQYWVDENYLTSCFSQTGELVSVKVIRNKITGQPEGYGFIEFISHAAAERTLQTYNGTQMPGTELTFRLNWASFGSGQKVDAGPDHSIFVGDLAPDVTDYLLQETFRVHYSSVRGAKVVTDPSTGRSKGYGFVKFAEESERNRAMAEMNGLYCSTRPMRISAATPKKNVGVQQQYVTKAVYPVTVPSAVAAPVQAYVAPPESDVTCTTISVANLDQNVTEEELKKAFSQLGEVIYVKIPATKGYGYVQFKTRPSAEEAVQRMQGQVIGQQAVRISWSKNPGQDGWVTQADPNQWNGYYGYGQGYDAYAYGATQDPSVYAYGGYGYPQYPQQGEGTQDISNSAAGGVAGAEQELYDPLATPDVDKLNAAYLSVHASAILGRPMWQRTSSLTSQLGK", "experiment": "EMSA; dose-dependent; REMSA; buffer, salt, pH and temperature not given in the material; unlabeled competitor up to at least 6 uM", "conditions": "protein: recombinant; tags: His (pET51b); label: 5'-Cy5; single strand"}, "RBP45d (His-RBP45d) [2]": {"target": "T1, RBP45d (His-RBP45d)", "experiment": "competition; unlabeled vs Cy5-SOT5-IN7; REMSA; buffer, salt, pH and temperature not given in the material; unlabeled competitor up to at least 6 uM", "conditions": "protein: recombinant; tags: His (pET51b); single strand"}}}
{"binder": "CUCAAUAUGAUAAAUUUUGUAAAUC (ssRNA)", "note": "[Cy5-SOT5-IN7]", "values": [{"measurement": "binding result", "setting": "RBP45d (His-RBP45d) [1]", "result": "binds"}]}
{"binder": "CUCAAUAUGAUAAAUUUUGUAAAUC (ssRNA)", "note": "[SOT5-IN7-NL]", "values": [{"measurement": "binding result", "setting": "RBP45d (His-RBP45d) [2]", "result": "binds"}]}
{"binder": "CUCAAUAUGGUAAAUUUUGUAAAUC (ssRNA)", "note": "[SOT5-IN7-M1-NL]", "values": [{"measurement": "binding result", "setting": "RBP45d (His-RBP45d) [2]", "result": "binds"}]}
{"binder": "CUCAAUAUGGCAAAUUUUGUAAAUC (ssRNA)", "note": "[SOT5-IN7-M2-NL]", "values": [{"measurement": "binding result", "setting": "RBP45d (His-RBP45d) [2]", "result": "binds"}]}
{"binder": "CUCAAUAUGCCCGGCCGGGUAAAUC (ssRNA)", "note": "[SOT5-IN7-M4-NL]", "values": [{"measurement": "binding result", "setting": "RBP45d (His-RBP45d) [2]", "result": "no binding"}]}
